In the nanobody polyreactivity screen of Harvey et al. (2022):

Test: yeast display, Sf9 membrane polyspecificity reagent, FACS + sequencing; frameworks hold sequencing errors
How it was run: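 Nanobodies came from a synthetic yeast display library in Saccharomyces cerevisiae BJ5465, induced with galactose for 36–48 hours and stained for 1 hour at 4 °C with 10% biotinylated, detergent-solubilized Sf9 membrane reagent. Cells were enriched on streptavidin microbeads and then FACS-sorted, with low and high (top ~1%) gates set on anti-HA fluorescence for expression and streptavidin fluorescence for reagent binding. Each polyreactivity label reflects the gate a clone came from. Genes were amplified by colony PCR, sequenced by MiSeq 2 × 250 and filtered by CDR length.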

Row | Sequence | polyreactivity (PSR sort gate)
1 | QVQLVESGGGLVQAGGSLRLSCAASGRTFQRYTMGWYRPAPGKETELVAVITNGGTRTYYADYVKGRLTISRDYAKNTVYLQMNSLKPEYTAVYYCAARVRYTANYDYWGQGTQVTVSS | high polyreactivity
2 | QVQLVESGGGLVQAGGSLRLSCAASGRTFQYNTMGWYRQAPGKERELVAAISRSGGTTYYADSVKGRFTISRDNAKNTVYLQMNSLKPEDTAVYYCAAANSYTFRYGSWGQGTEVTVSS | high polyreactivity
3 | QVQLVESGGGLVQAGGSLRLSCAASGRTFQYNVMGWYRQAPGKEREFVAAITWNGGSTYYADSVKGRFTISRDNAKNTVYLQMNSLKPEDPAVYYCAARWTKKQEYGYWGQGTQVTVSS | low polyreactivity
4 | QVQLVESGGGLVQAGGSLRLSCAASGRTFQYYAMGWYRQAPGKERELVAAISWSGARTYYADSVKGRFTISRDNAKNTVYLQMNSLKPEDTAVYYCAADRYWISLWYIMGYWGQGTQVTVSS | high polyreactivity
5 | QVQLVESGGGLVQAGGSLRLSCAASGRTFQYYAMGWYRQAPGKERELVAAITRGDSTYYADSVKGRFTISRDNAKNTVYLQMNSLKPEDTAVYYCNAKLYKPPFDYWGQGTQVTVSS | low polyreactivity
6 | QVQLVESGGGLVQAGGSLRLSCAASGRTFQYYAMGWYRQAPGKERELVAAITSGGSTYYADSVKGRFTISRDNAKNTVYLQMNSLKPEDTAVYYCAASFYYSGHDDYWGQGTQVTVSS | low polyreactivity
7 | QVQLVESGGGLVQAGGSLRLSCAASGRTFQYYAMGWYRQAPGKERVLVAAITSSGGSTYYADSVKGRFTISRHNAKNTVYLQMNSLKPEDTAVYYCAAEDGLQGNYNYGYDYWGQGTQVTVSS | low polyreactivity
8 | QVQLVESGGGLVQAGGSLRLSCAASGRTFQYYTMGWYRQAPGKERELVAAISSSGVSTYYADSVKGRFTISRDNAKNTVYLQMNSLKPEDTAVYYCNAVSRARYHAAYDSWGQGTQVTVSS | high polyreactivity
9 | QVQLVESGGGLVQAGGSLRLSCAASGRTFRANAMGWYRQAPGKERDLVAAITWDGGSTYYADSVKGRFTISRDNAKNTVYLQMNSLKPEDTAVYYCNTDPYLWGQGTQVTVSS | low polyreactivity
10 | QVQLVESGGGLVQAGGSLRLSCAASGRTFRAYAMGWYRQAPGKERELVAGITSGGSTNYADSVKGRFTISRDNAKNTVYLQMNSLKPEDTAVYYCAAKTHSRTKVYTADYWGQGTQVTVSS | high polyreactivity
11 | QVQLVESGGGLVQAGGSLRLSCAASGRTFRAYSMGWYRQAPGKERELVAASSRSGGRTYYADSVKGRFTISRDNAKITVFFQINSLKPEDTAVYYCAAETKYNTHDYYYWGQATQVTVSS | high polyreactivity
12 | QVQLVESGGGLVQAGGSLRLSCAASGRTFRCYAMGWYRQAPGKETELVAAITFSGGSTYYADSVKGRFTISRDNAKNTVYLQMNSLKPEDTAVYYCNAVYYRRKEYDYWGQGTQVTVSS | high polyreactivity
13 | QVQLVESGGGLVQAGGSLRLSCAASGRTFRFYAMGWYRQAPGKERELVAAITGSGGSTYYADSVKGRFTISRDNAKNTVYLQMNSLKPEDTAVYYCAAQRQQRYYNPEHYNYWGQGTQVTVSS | low polyreactivity
14 | QVQLVESGGGLVQAGGSLRLSCAASGRTFRFYAMGWYRQAPGKERELVAGITGGGSTNYADSVKGRFTISRDNAKNTVYLQMNSLKPEDTAVYSCNATIRYYRRGKLYDYWGQGTQVTVSS | high polyreactivity
15 | QVQLVESGGGLVQAGGSLRLSCAASGRTFRFYARGWYRQAPGKERELVAAIRNGGRTNYADSVKGRFTISRDNAKISVFLQMNSLKPEDTAVYYCAIQPGISYRHYDYWGQGTQVTVSS | high polyreactivity
16 | QVQLVESGGGLVQAGGSLRLSCAASGRTFRGNAMGWYRQAPAKDRELVGAGGSTYYADSVKGRFTISRDNAKNTVYLQMNSLKPEASAVYYCGAALGFSRYSWFGYGYWGQGTQVTVSS | low polyreactivity
17 | QVQLVESGGGLVQAGGSLRLSCAASGRTFRGNAMGWYRQAPGKERELVAVITSGDSTYYADSVKGRFTISRDNAKNTVYLQMNSLKPEDTAVYYCATKSRFSRGKAYYYWGQGTQVTVSS | high polyreactivity
18 | QVQLVESGGGLVQAGGSLRLSCAASGRTFRGNAMGWYRQAPGKEREVVAAISWSGGNTYYADSVKGRFTISRDNAKNTVYLQMNSLKPEDTAVYYCAAGSYWSPYGQSFWPKYDYWGQGTQVTVSS | high polyreactivity
19 | QVQLVESGGGLVQAGGSLRLSCAASGRTFRGNVMGWYRQAPGNEREFVAASTRSGSNTYYADSVKGRFTISRDYAKTTVYLQMNSLKPEDTAVYDCAKSVLLGYKRHDSWGQGTQVTVSS | high polyreactivity
20 | QVQLVESGGGLVQAGGSLRLSCAASGRTFRGYAMGWYRQAPGKERELVAAISWSGGSTYYADSVKGRFTISRDNAKNTVYLQMNSLKPEDTAVYYCNAVYRGVAYDYWGQGTQVTVSS | high polyreactivity
21 | QVQLVESGGGLVQAGGSLRLSCAASGRTFRGYAMGWYRQAPGKERELVAGISRSGGSTYYADSVKGRFTISRDNAKNTVYLQMNSLKPEDTAVYYCNAVPIYYAWRRNKPFDYWGQGTQVTVSS | low polyreactivity
22 | QVQLVESGGGLVQAGGSLRLSCAASGRTFRGYTMGWYRQAPGKERELVAAINWSGGRTYYADSVKGRFTISRDYAKNTVYLQMNSLKPEDTAVYDCNAVTQITGSSDGDYWGQGTQVNVSS | high polyreactivity
23 | QVQLVESGGGLVQAGGSLRLSCAASGRTFRHNAMGWYRQAPGKERELVAAISSSGTNTHYADSVKGRFTISRDNAKNTVYLQMNSLKPEDTAVYYCAADRWGARRKQYHENGYWGQGTQVTVSS | high polyreactivity
24 | QVQLVESGGGLVQAGGSLRLSCAASGRTFRHNAMGWYRQAPGKERELVAANSSGGSTYYADSVKGRFTISRDNAKNTVYLQLYSLKREDTAVYYCAASRYRPYGGTTTDYWGQGTQLTVSS | high polyreactivity
25 | QVQLVESGGGLVQAGGSLRLSCAASGRTFRHNTMGWYRQAPGKEREFVAVITSSGGSTYYADSVKGRFTISRDNAKNTVYLQMNSLKPEDTAVYYCNAKYHLSRSTYYYWGQGTQVTVSS | high polyreactivity
26 | QVQLVESGGGLVQAGGSLRLSCAASGRTFRINAMGWYRHAPGKERELVAAITRGDTNYADSVKGRFTISRDNAKNTVYLQMNSLKPEDTAVYYCNAELSFRYPVFRELDYWGQGTQVTVSS | low polyreactivity
27 | QVQLVESGGGLVQAGGSLRLSCAASGRTFRINAMGWYRQAPGKEREFVASIRYSGGSTYYADSVKGRFTISRDNAKNTVYLQMNSLKPEDTAVYYCAAVRSYYRGYDYWGQGTQVTVSS | high polyreactivity
28 | QVQLVESGGGLVQAGGSLRLSCAASGRTFRIYAEGWYRQPPGKERELVARITWSGGRTYYADSVKGRFTISRDNAQNTVYLQMNSLKPEDTAVYYCNAGGSWEFDYWGQGTQVTVSS | low polyreactivity
29 | QVQLVESGGGLVQAGGSLRLSCAASGRTFRKYAMGWYRQAPGKERELVAAISWSGGSTYYANSVKGRFTISRDNAKNTVYLQMNSLKPEDTAVYYCAAVPVHTGSLYWGFTTGYDYWGQGTKVTVSS | low polyreactivity
30 | QVQLVESGGGLVQAGGSLRLSCAASGRTFRKYTMGWYRQAPGKERELVAAISSRGGSTYYADSVKGRFTISRDNAKNTVYLQMNSLKPEDTAVYYCATDYITPSSEGDYWGQGTQVTVSS | high polyreactivity
